This sample holds only a part of the variants without activity.

One data set relates to biotinyl-Phe-oxazolone. As to the kind of experiment: self-aminoacylation, catalytic enhancement (BFO) (fold over background); higher = more active; k-Seq, kA / k0A0; sequences stand for … in GGGAAUGGAUCCACAUCUACGAAUUC…UUCACUGCAGACUUGACGAAGCUG
The method, boiled down: (§1)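 The uncatalyzed rate is the low-activity peak of a bimodal Gaussian fit, and catalytic enhancement is median kA divided by it. The kA values came from pseudo-first-order fits, with 1000 bootstraps, of per-sequence fraction reacted measured by streptavidin capture, triplicate qPCR and Illumina sequencing. Mutagenized RNA pools with a 21-nt variable region (0.43 μM) were reacted with each biotinyl-aminoacyl-oxazolone at 2–1250 μM in 50 μL HEPES/NaCl/KCl/MgCl2/CaCl2 buffer with 5% acetonitrile, pH 6.9–7.0, for 90 minutes at room temperature.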

The test system of another data set is biotinyl-Ile-oxazolone. Nature of the data set: self-aminoacylation, catalytic enhancement (BIO) (fold over background); higher = more active; k-Seq, kA / k0A0; sequences stand for … in GGGAAUGGAUCCACAUCUACGAAUUC…UUCACUGCAGACUUGACGAAGCUG
The method, boiled down: as §1

In the next data set the test system is biotinyl-Met-oxazolone. Nature of the data set: self-aminoacylation, catalytic enhancement (BMO) (fold over background); higher = more active; k-Seq, kA / k0A0; sequences stand for … in GGGAAUGGAUCCACAUCUACGAAUUC…UUCACUGCAGACUUGACGAAGCUG
The method, boiled down:
as §1

The test system of the next data set is biotinyl-Val-oxazolone. Nature of the data set: self-aminoacylation, catalytic enhancement (BVO) (fold over background); higher = more active; k-Seq, kA / k0A0; sequences stand for … in GGGAAUGGAUCCACAUCUACGAAUUC…UUCACUGCAGACUUGACGAAGCUG
An outline of the steps: as §1

The test system of a further data set is biotinyl-Leu-oxazolone. Nature of the data set: self-aminoacylation, catalytic enhancement (BLO) (fold over background); higher = more active; k-Seq, kA / k0A0; sequences stand for … in GGGAAUGGAUCCACAUCUACGAAUUC…UUCACUGCAGACUUGACGAAGCUG
The method, boiled down: as §1

In a further data set the test system is biotinyl-Trp-oxazolone. As to the kind of experiment: self-aminoacylation, catalytic enhancement (BWO) (fold over background); higher = more active; k-Seq, kA / k0A0; sequences stand for … in GGGAAUGGAUCCACAUCUACGAAUUC…UUCACUGCAGACUUGACGAAGCUG
The method, boiled down: as §1

For “AUUACCUUGCUCAUCGAGUGA [Fam2.1 aminoacylation ribozyme variant]”, the self-aminoacylation in the data set on biotinyl-Phe-oxazolone stood at 4.55; in the data set with biotinyl-Ile-oxazolone it was 1.68; with biotinyl-Met-oxazolone it was 2.29; with biotinyl-Val-oxazolone it was 1.82; in the data set on biotinyl-Leu-oxazolone, 2.31; in the data set with biotinyl-Trp-oxazolone, 3.02.
Regarding “AUUACCUUGGUAAUCGAGUGA [Fam2.1 aminoacylation ribozyme variant]”, the self-aminoacylation with biotinyl-Phe-oxazolone was 40; in the data set with biotinyl-Ile-oxazolone, 3.52; with biotinyl-Met-oxazolone it was 7.66; in the data set on biotinyl-Val-oxazolone, 3.87; with biotinyl-Leu-oxazolone it was 8.08; in the data set with biotinyl-Trp-oxazolone, 8.42.
On to “AUUACCUUGGUCAACGAGUGA [Fam2.1 aminoacylation ribozyme variant]”, for which the self-aminoacylation was determined as 17.5 in the data set with biotinyl-Phe-oxazolone; 3.57 in the data set with biotinyl-Ile-oxazolone; 6.26 in the data set with biotinyl-Met-oxazolone; 3.54 in the data set with biotinyl-Val-oxazolone; 6 in the data set with biotinyl-Leu-oxazolone; 6.5 in the data set on biotinyl-Trp-oxazolone.
Take “AUUACCUUGGUCACCGAGUGA [Fam2.1 aminoacylation ribozyme variant]”: the self-aminoacylation is 23.4 in the data set on biotinyl-Phe-oxazolone; 2.87 in the data set with biotinyl-Ile-oxazolone; 6.15 with biotinyl-Met-oxazolone; 3.11 with biotinyl-Val-oxazolone; 6.74 in the data set with biotinyl-Leu-oxazolone; 6.72 in the data set with biotinyl-Trp-oxazolone.
In the case of “AUUACCUUGGUCAGCGAGUGA [Fam2.1 aminoacylation ribozyme variant]”, the self-aminoacylation came out at 21.5 with biotinyl-Phe-oxazolone; 3.26 in the data set on biotinyl-Ile-oxazolone; 5.05 with biotinyl-Met-oxazolone; 3.08 in the data set on biotinyl-Val-oxazolone; 5.38 in the data set on biotinyl-Leu-oxazolone; 6.84 in the data set on biotinyl-Trp-oxazolone.
Turning to “AUUACCUUGGUCAUCGAGAGA [Fam2.1 aminoacylation ribozyme variant]”, the self-aminoacylation with biotinyl-Phe-oxazolone is 0.809; in the data set on biotinyl-Ile-oxazolone it was 0.924; with biotinyl-Met-oxazolone, 0.957; in the data set with biotinyl-Val-oxazolone it was 1.19; with biotinyl-Leu-oxazolone it was 0.907; in the data set with biotinyl-Trp-oxazolone, 0.946.
Take “AUUACCUUGGUCAUCGCGUGA [Fam2.1 aminoacylation ribozyme variant]”: the self-aminoacylation with biotinyl-Phe-oxazolone amounted to 130; in the data set with biotinyl-Ile-oxazolone, 7.37; in the data set on biotinyl-Met-oxazolone, 17.3; in the data set with biotinyl-Val-oxazolone, 9.23; in the data set on biotinyl-Leu-oxazolone, 19.2; with biotinyl-Trp-oxazolone, 19.5.
“AUUACCUUGGUCAUCGGGUGA [Fam2.1 aminoacylation ribozyme variant]”: the self-aminoacylation with biotinyl-Phe-oxazolone was found to be 53.3; in the data set with biotinyl-Ile-oxazolone it was 5.69; with biotinyl-Met-oxazolone it was 9.54; in the data set on biotinyl-Val-oxazolone it was 6.05; with biotinyl-Leu-oxazolone it was 10.6; with biotinyl-Trp-oxazolone, 10.8.
Turning to “AUUACCUUGGUCUUCGAGUGA [Fam2.1 aminoacylation ribozyme variant]”, the self-aminoacylation came to 32.9 in the data set with biotinyl-Phe-oxazolone; 3.43 with biotinyl-Ile-oxazolone; 6.13 in the data set on biotinyl-Met-oxazolone; 4.04 with biotinyl-Val-oxazolone; 6.52 in the data set with biotinyl-Leu-oxazolone; 7.78 in the data set on biotinyl-Trp-oxazolone.
With “AUUACCUUGGUUAUCGAGUGA [Fam2.1 aminoacylation ribozyme variant]”, the self-aminoacylation with biotinyl-Phe-oxazolone was 44.2; in the data set on biotinyl-Ile-oxazolone, 3.66; in the data set on biotinyl-Met-oxazolone, 8.15; in the data set with biotinyl-Val-oxazolone, 4.03; in the data set with biotinyl-Leu-oxazolone it was 7.92; in the data set with biotinyl-Trp-oxazolone it was 9.73.
Take “AUUACGCAGGUCAUCGAGUGA [Fam2.1 aminoacylation ribozyme variant]”: the self-aminoacylation in the data set on biotinyl-Phe-oxazolone was determined as 3.59; in the data set with biotinyl-Ile-oxazolone, 2.73; in the data set on biotinyl-Met-oxazolone it was 3.04; with biotinyl-Val-oxazolone it was 2.45; with biotinyl-Leu-oxazolone, 3.44; in the data set with biotinyl-Trp-oxazolone, 5.06.
For the sequence “AUUACGCUAGUCAUCGAGUGA [Fam2.1 aminoacylation ribozyme variant]”, the self-aminoacylation in the data set on biotinyl-Phe-oxazolone worked out at 2.19; in the data set on biotinyl-Ile-oxazolone, 2.48; with biotinyl-Met-oxazolone, 3.01; in the data set on biotinyl-Val-oxazolone it was 2.47; with biotinyl-Leu-oxazolone it was 3.48; in the data set on biotinyl-Trp-oxazolone, 3.63.
“AUUACGCUGGUCAUCGACUGA [Fam2.1 aminoacylation ribozyme variant]”: the self-aminoacylation in the data set with biotinyl-Phe-oxazolone was determined as 0.691; in the data set with biotinyl-Ile-oxazolone it was 1.48; in the data set with biotinyl-Met-oxazolone, 0.889; in the data set on biotinyl-Val-oxazolone it was 1.24; in the data set with biotinyl-Leu-oxazolone, 1.73; in the data set with biotinyl-Trp-oxazolone, 1.65.
Consider “AUUACGCUGGUCAUCGAGGGA [Fam2.1 aminoacylation ribozyme variant]”, for which the self-aminoacylation in the data set with biotinyl-Phe-oxazolone was 1.38; in the data set on biotinyl-Ile-oxazolone, 1.61; in the data set on biotinyl-Met-oxazolone, 1.46; in the data set on biotinyl-Val-oxazolone, 2.03; in the data set on biotinyl-Leu-oxazolone it was 1.98; in the data set with biotinyl-Trp-oxazolone, 2.25.
In the case of “AUUACGCUGGUCAUCGAGUCA [Fam2.1 aminoacylation ribozyme variant]”, the self-aminoacylation came to 0.768 in the data set with biotinyl-Phe-oxazolone; 1.15 with biotinyl-Ile-oxazolone; 1.15 in the data set with biotinyl-Met-oxazolone; 1.23 in the data set with biotinyl-Val-oxazolone; 1 in the data set on biotinyl-Leu-oxazolone; 0.981 in the data set on biotinyl-Trp-oxazolone.
As to “AUUACGCUGGUCAUCGAGUGG [Fam2.1 aminoacylation ribozyme variant]”, the self-aminoacylation was 1.66 in the data set with biotinyl-Phe-oxazolone; 1.46 in the data set on biotinyl-Ile-oxazolone; 2.06 in the data set with biotinyl-Met-oxazolone; 1.45 with biotinyl-Val-oxazolone; 1.87 in the data set with biotinyl-Leu-oxazolone; 1.73 in the data set with biotinyl-Trp-oxazolone.
For “AUUACGCUGGUUAUCGAGUGA [Fam2.1 aminoacylation ribozyme variant]”, the self-aminoacylation worked out at 27.5 in the data set with biotinyl-Phe-oxazolone; 3.22 in the data set with biotinyl-Ile-oxazolone; 5.92 in the data set with biotinyl-Met-oxazolone; 3.68 with biotinyl-Val-oxazolone; 5.48 in the data set with biotinyl-Leu-oxazolone; 6.53 in the data set on biotinyl-Trp-oxazolone.
Consider “AUUACGCUUGUCAUCGAGUGA [Fam2.1 aminoacylation ribozyme variant]”, for which the self-aminoacylation was found to be 4.09 in the data set on biotinyl-Phe-oxazolone; 2.6 in the data set with biotinyl-Ile-oxazolone; 3.16 in the data set with biotinyl-Met-oxazolone; 2.36 in the data set with biotinyl-Val-oxazolone; 3.93 in the data set with biotinyl-Leu-oxazolone; 4.03 in the data set on biotinyl-Trp-oxazolone.
With “AUUACUCUAGUCAUCGAGUGA [Fam2.1 aminoacylation ribozyme variant]”, the self-aminoacylation turned out to be 19.1 in the data set with biotinyl-Phe-oxazolone; 2.95 with biotinyl-Ile-oxazolone; 5.28 with biotinyl-Met-oxazolone; 2.9 with biotinyl-Val-oxazolone; 5.41 with biotinyl-Leu-oxazolone; 6.32 in the data set with biotinyl-Trp-oxazolone.
Turning to “AUUACUCUGGUCAACGAGUGA [Fam2.1 aminoacylation ribozyme variant]”, the self-aminoacylation in the data set on biotinyl-Phe-oxazolone is 26.9; in the data set with biotinyl-Ile-oxazolone, 3.12; with biotinyl-Met-oxazolone, 5; in the data set with biotinyl-Val-oxazolone, 2.76; with biotinyl-Leu-oxazolone, 5.72; with biotinyl-Trp-oxazolone, 7.22.
On to “AUUACUCUGGUCAUCGAGUGA [Fam2.1 aminoacylation ribozyme variant]”, for which the self-aminoacylation in the data set on biotinyl-Phe-oxazolone came to 6.25; in the data set on biotinyl-Ile-oxazolone, 3.77; in the data set on biotinyl-Met-oxazolone, 6.63; with biotinyl-Val-oxazolone it was 3.78; in the data set with biotinyl-Leu-oxazolone it was 6.98; in the data set with biotinyl-Trp-oxazolone, 7.48.
For the sequence “AUUACUCUGGUCAUCGAGUGU [Fam2.1 aminoacylation ribozyme variant]”, the self-aminoacylation with biotinyl-Phe-oxazolone came out at 4.35; with biotinyl-Ile-oxazolone, 2.52; in the data set with biotinyl-Met-oxazolone, 4.24; with biotinyl-Val-oxazolone it was 2.57; with biotinyl-Leu-oxazolone it was 4.37; with biotinyl-Trp-oxazolone, 3.92.
Regarding “AUUACUCUGGUCAUCGGGUGA [Fam2.1 aminoacylation ribozyme variant]”, the self-aminoacylation in the data set with biotinyl-Phe-oxazolone was 39.7; in the data set on biotinyl-Ile-oxazolone, 5.43; in the data set with biotinyl-Met-oxazolone it was 10.1; in the data set with biotinyl-Val-oxazolone, 6.05; in the data set with biotinyl-Leu-oxazolone, 11.8; with biotinyl-Trp-oxazolone, 12.2.
Regarding “AUUACUCUGGUCAUGGAGUGA [Fam2.1 aminoacylation ribozyme variant]”, the self-aminoacylation is 3.58 in the data set on biotinyl-Phe-oxazolone; 2.42 with biotinyl-Ile-oxazolone; 3.28 with biotinyl-Met-oxazolone; 2.05 in the data set on biotinyl-Val-oxazolone; 3.98 with biotinyl-Leu-oxazolone; 3.35 in the data set on biotinyl-Trp-oxazolone.
For “AUUACUCUGGUCCUCGAGUGA [Fam2.1 aminoacylation ribozyme variant]”, the self-aminoacylation in the data set with biotinyl-Phe-oxazolone amounted to 18.2; in the data set on biotinyl-Ile-oxazolone, 2.31; in the data set with biotinyl-Met-oxazolone, 3.62; with biotinyl-Val-oxazolone it was 2.01; in the data set with biotinyl-Leu-oxazolone, 4.34; in the data set on biotinyl-Trp-oxazolone it was 4.62.
